Test results taken from patent publication US20150232544A1.

Tests used:
eTau2 = eTau2 (UniProt P10636); experiment: relative binding affinity, method not named; eTau 2
eTau1b = eTau1b (UniProt P10636); experiment: relative binding affinity, method not named; eTau 1b

Sequence of UniProt P10636 (P10636 other isoform, or with tags, fused parts or gaps): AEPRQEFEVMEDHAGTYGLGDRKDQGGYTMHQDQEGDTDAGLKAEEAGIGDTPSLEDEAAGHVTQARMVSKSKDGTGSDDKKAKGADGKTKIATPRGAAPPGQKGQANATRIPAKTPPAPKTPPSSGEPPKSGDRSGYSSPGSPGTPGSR

| Binder | Kd (eTau2) | Kd (eTau1b) |
| --- | --- | --- |
| humanized IPN002 variant VH4/Vk3 (antibody, V domains shown) VH: EVQLVESGGALVKPGGSLRLSCAASGFSFSKYGMSWVRQAPGKGLEWVATISSSGSRTYYPDSVKGRFTISRDNAKNTLYLQMNSLRAEDTAMYYCAISWDGAMDYWGQGTTVTVSS VL: DVVMTQSPLSLPVTLGQPASISCKSSQSIVHSNGNTYLEWYLQKPGQSPQLLVYKVSNRFSGVPDRFSGSGSGTDFTLKISRVEAEDVGVYYCFQGSLVPWAFGGGTKVEIK | 0.473 nM | 0.313 nM |
| humanized IPN002 variant VH3/Vk3 (antibody, V domains shown) VH: EVQLVESGGALVKPGGSLRLSCAASGFSFSKYGMSWVRQAPGKGLEWVATISSSGSRTYYPDSVKGRFTISRDNAKNTLYLQMNSLRAEDTAMYYCSISWDGAMDYWGQGTTVTVSS VL: DVVMTQSPLSLPVTLGQPASISCKSSQSIVHSNGNTYLEWYLQKPGQSPQLLVYKVSNRFSGVPDRFSGSGSGTDFTLKISRVEAEDVGVYYCFQGSLVPWAFGGGTKVEIK | 0.471 nM | 0.689 nM |
| humanized IPN002 variant VH1/Vk1 (antibody, V domains shown) VH: EVHLVESGGALVKPGGSLRLSCAASGFSFSKYGMSWVRQAPGKGLEWVATISSSGSRTYYPDSVKGRFTISRDNAKNTLYLQMSSLKSEDTAMYYCSISWDGAMDYWGQGTSVTVSS VL: DVLMTQSPLSLPVTLGQPASISCKSSQSIVHSNGNTYLEWYLQKPGQSPQLLVYKVSNRFSGVPDRFSGSGSGTDFTLKISRVEAEDVGTYYCFQGSLVPWAFGGGTKVEIK | 0.465 nM | 0.737 nM |
| humanized IPN002 variant VH3/Vk4 (antibody, V domains shown) VH: EVQLVESGGALVKPGGSLRLSCAASGFSFSKYGMSWVRQAPGKGLEWVATISSSGSRTYYPDSVKGRFTISRDNAKNTLYLQMNSLRAEDTAMYYCSISWDGAMDYWGQGTTVTVSS VL: DVVMTQSPLSLPVTLGQPASISCKSSQSIVHSNGNTYLEWYLQKPGQSPQLLIYKVSNRFSGVPDRFSGSGSGTDFTLKISRVEAEDVGVYYCFQGSLVPWAFGGGTKVEIK | 0.447 nM | 0.382 nM |
| humanized IPN002 variant VH4/Vk4 (antibody, V domains shown) VH: EVQLVESGGALVKPGGSLRLSCAASGFSFSKYGMSWVRQAPGKGLEWVATISSSGSRTYYPDSVKGRFTISRDNAKNTLYLQMNSLRAEDTAMYYCAISWDGAMDYWGQGTTVTVSS VL: DVVMTQSPLSLPVTLGQPASISCKSSQSIVHSNGNTYLEWYLQKPGQSPQLLIYKVSNRFSGVPDRFSGSGSGTDFTLKISRVEAEDVGVYYCFQGSLVPWAFGGGTKVEIK | 0.564 nM | 0.535 nM |
| humanized IPN002 variant VH3/Vk1 (antibody, V domains shown) VH: EVQLVESGGALVKPGGSLRLSCAASGFSFSKYGMSWVRQAPGKGLEWVATISSSGSRTYYPDSVKGRFTISRDNAKNTLYLQMNSLRAEDTAMYYCSISWDGAMDYWGQGTTVTVSS VL: DVLMTQSPLSLPVTLGQPASISCKSSQSIVHSNGNTYLEWYLQKPGQSPQLLVYKVSNRFSGVPDRFSGSGSGTDFTLKISRVEAEDVGTYYCFQGSLVPWAFGGGTKVEIK | 0.705 nM | 0.529 nM |
| humanized IPN002 variant VH4/Vk2 (antibody, V domains shown) VH: EVQLVESGGALVKPGGSLRLSCAASGFSFSKYGMSWVRQAPGKGLEWVATISSSGSRTYYPDSVKGRFTISRDNAKNTLYLQMNSLRAEDTAMYYCAISWDGAMDYWGQGTTVTVSS VL: DVVMTQSPLSLPVTLGQPASISCKSSQSIVHSNGNTYLEWYLQKPGQSPQLLVYKVSNRFSGVPDRFSGSGSGTDFTLKISRVEAEDVGTYYCFQGSLVPWAFGGGTKVEIK | 0.451 nM | 0.483 nM |
| humanized IPN002 variant VH1/Vk3 (antibody, V domains shown) VH: EVHLVESGGALVKPGGSLRLSCAASGFSFSKYGMSWVRQAPGKGLEWVATISSSGSRTYYPDSVKGRFTISRDNAKNTLYLQMSSLKSEDTAMYYCSISWDGAMDYWGQGTSVTVSS VL: DVVMTQSPLSLPVTLGQPASISCKSSQSIVHSNGNTYLEWYLQKPGQSPQLLVYKVSNRFSGVPDRFSGSGSGTDFTLKISRVEAEDVGVYYCFQGSLVPWAFGGGTKVEIK | 0.444 nM | 0.59 nM |

The next binders have a lower Kd (eTau2) than those just listed; values first:

| Kd (eTau2) | Kd (eTau1b) | Binder |
| --- | --- | --- |
| 0.427 nM | 0.597 nM | humanized IPN002 variant VH1/Vk4 (antibody, V domains shown) VH: EVHLVESGGALVKPGGSLRLSCAASGFSFSKYGMSWVRQAPGKGLEWVATISSSGSRTYYPDSVKGRFTISRDNAKNTLYLQMSSLKSEDTAMYYCSISWDGAMDYWGQGTSVTVSS VL: DVVMTQSPLSLPVTLGQPASISCKSSQSIVHSNGNTYLEWYLQKPGQSPQLLIYKVSNRFSGVPDRFSGSGSGTDFTLKISRVEAEDVGVYYCFQGSLVPWAFGGGTKVEIK |
| 0.408 nM | 0.614 nM | humanized IPN002 variant VH3/Vk2 (antibody, V domains shown) VH: EVQLVESGGALVKPGGSLRLSCAASGFSFSKYGMSWVRQAPGKGLEWVATISSSGSRTYYPDSVKGRFTISRDNAKNTLYLQMNSLRAEDTAMYYCSISWDGAMDYWGQGTTVTVSS VL: DVVMTQSPLSLPVTLGQPASISCKSSQSIVHSNGNTYLEWYLQKPGQSPQLLVYKVSNRFSGVPDRFSGSGSGTDFTLKISRVEAEDVGTYYCFQGSLVPWAFGGGTKVEIK |
| 0.405 nM | 0.359 nM | humanized IPN002 variant VH4/Vk1 (antibody, V domains shown) VH: EVQLVESGGALVKPGGSLRLSCAASGFSFSKYGMSWVRQAPGKGLEWVATISSSGSRTYYPDSVKGRFTISRDNAKNTLYLQMNSLRAEDTAMYYCAISWDGAMDYWGQGTTVTVSS VL: DVLMTQSPLSLPVTLGQPASISCKSSQSIVHSNGNTYLEWYLQKPGQSPQLLVYKVSNRFSGVPDRFSGSGSGTDFTLKISRVEAEDVGTYYCFQGSLVPWAFGGGTKVEIK |
| 0.361 nM | 0.558 nM | humanized IPN002 variant VH1/Vk2 (antibody, V domains shown) VH: EVHLVESGGALVKPGGSLRLSCAASGFSFSKYGMSWVRQAPGKGLEWVATISSSGSRTYYPDSVKGRFTISRDNAKNTLYLQMSSLKSEDTAMYYCSISWDGAMDYWGQGTSVTVSS VL: DVVMTQSPLSLPVTLGQPASISCKSSQSIVHSNGNTYLEWYLQKPGQSPQLLVYKVSNRFSGVPDRFSGSGSGTDFTLKISRVEAEDVGTYYCFQGSLVPWAFGGGTKVEIK |
| 0.354 nM | 0.52 nM | humanized IPN002 variant VH2/Vk4 (antibody, V domains shown) VH: EVHLVESGGALVKPGGSLRLSCAASGFSFSKYGMSWVRQAPGKGLEWVATISSSGSRTYYPDSVKGRFTISRDNAKNTLYLQMNSLRAEDTAMYYCSISWDGAMDYWGQGTTVTVSS VL: DVVMTQSPLSLPVTLGQPASISCKSSQSIVHSNGNTYLEWYLQKPGQSPQLLIYKVSNRFSGVPDRFSGSGSGTDFTLKISRVEAEDVGVYYCFQGSLVPWAFGGGTKVEIK |
| 0.283 nM | 0.229 nM | humanized IPN002 variant VH2/Vk2 (antibody, V domains shown) VH: EVHLVESGGALVKPGGSLRLSCAASGFSFSKYGMSWVRQAPGKGLEWVATISSSGSRTYYPDSVKGRFTISRDNAKNTLYLQMNSLRAEDTAMYYCSISWDGAMDYWGQGTTVTVSS VL: DVVMTQSPLSLPVTLGQPASISCKSSQSIVHSNGNTYLEWYLQKPGQSPQLLVYKVSNRFSGVPDRFSGSGSGTDFTLKISRVEAEDVGTYYCFQGSLVPWAFGGGTKVEIK |
| 0.261 nM | 0.287 nM | humanized IPN002 variant VH2/Vk3 (antibody, V domains shown) VH: EVHLVESGGALVKPGGSLRLSCAASGFSFSKYGMSWVRQAPGKGLEWVATISSSGSRTYYPDSVKGRFTISRDNAKNTLYLQMNSLRAEDTAMYYCSISWDGAMDYWGQGTTVTVSS VL: DVVMTQSPLSLPVTLGQPASISCKSSQSIVHSNGNTYLEWYLQKPGQSPQLLVYKVSNRFSGVPDRFSGSGSGTDFTLKISRVEAEDVGVYYCFQGSLVPWAFGGGTKVEIK |
| 0.225 nM | 0.215 nM | humanized IPN002 variant VH2/Vk1 (antibody, V domains shown) VH: EVHLVESGGALVKPGGSLRLSCAASGFSFSKYGMSWVRQAPGKGLEWVATISSSGSRTYYPDSVKGRFTISRDNAKNTLYLQMNSLRAEDTAMYYCSISWDGAMDYWGQGTTVTVSS VL: DVLMTQSPLSLPVTLGQPASISCKSSQSIVHSNGNTYLEWYLQKPGQSPQLLVYKVSNRFSGVPDRFSGSGSGTDFTLKISRVEAEDVGTYYCFQGSLVPWAFGGGTKVEIK |
